The values below come from paper PMC6638984, “Increased association between Epstein-Barr virus EBNA2 from type 2 strains and the transcriptional repressor BS69 restricts EBNA2 activity” (PLoS Pathogens, 2019).

The chains are these.
B12: BS69 coiled-coil MYND domain (BS69_(CC-MYND), amino acids 480-602) (domain or fragment, human, UniProt Q15326 480-602, looked up)
chain: DRMKSDHKRETERVVREALEKLRSEMEEEKRQAVNKAVANMQGEMDRKCKQVKEKCKEEFVEEIKKLATQHKQLISQTKKKQWCYNCEEEAMYHCCWNTSYCSIKCQQEHWHAEHKRTCRRKR
notes: BS69 (ZMYND11), human, amino acids 480-602 comprising the coiled-coil and MYND domains, amplified from pCI-BS69 (full length, isoform 1, 602 amino acids); Dimer by SEC-MALS; Expressed from pET49b+ as a GST-6xHis fusion; the tag was cleaved with 3C protease; also called BS69 CC-MYND domain; ZMYND11; source: E. coli Rosetta 2 (DE3) pLysS, purified (cobalt resin, 3C protease cleavage, GSTrap, …)

Data set [1] deals with B12. The data set can be described thus: ITC; EBNA2 polypeptide titrated into 0.1 mM BS69_(CC-MYND) in the cell, 19 x 2.0 μl injections, 25°C, 20 mM Tris-HCl, 100 mM NaCl, 1 mM TCEP, pH 7.5; one-site (one event) model; n calculated for monomeric proteins. As to conditions: both partners purified.
Data set [2] has as its target T1, BS69 coiled-coil MYND domain (BS69_(CC-MYND), amino acids 480-602) (human, UniProt Q15326-1 480-602).
T1 construct: cloned into pET49b+; also called ZMYND11 CC-MYND; source: E. coli Rosetta 2 (DE3) pLysS, purified (HisPur cobalt resin, 3C protease cleavage, Superdex 75); not shown: GST, N-terminal, cleaved; His6, N-terminal, cleaved
T1 sequence (looked up): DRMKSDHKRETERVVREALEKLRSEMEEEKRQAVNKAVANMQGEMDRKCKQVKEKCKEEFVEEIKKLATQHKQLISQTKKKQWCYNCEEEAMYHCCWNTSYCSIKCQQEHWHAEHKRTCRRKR
The data set can be described thus: ITC; EBNA2 polypeptide (0.3 or 0.6 mM) titrated into 0.1 mM BS69_(CC-MYND) in the cell, 19 x 2.0 µl injections, 25°C, 20 mM Tris-HCl, 100 mM NaCl, 1 mM TCEP, pH 7.5; one-site (one event) model; n on monomer concentrations; mean of 3 experiments. To be noted: both partners purified.

For data set [3], the target named is B12. The data set can be described thus: ITC; EBNA2 polypeptide (0.3 mM) titrated into 0.1 mM BS69_(CC-MYND) in the cell, 29 x 1.3 μl injections, 25°C, 20 mM Tris-HCl, 100 mM NaCl, 1 mM TCEP, pH 7.5; two-site (two event) model. As to conditions: both partners purified.
Data set [4] has as its target B12. The data set can be described thus: ITC; 1 mM EBNA2 peptide titrated into 0.1 mM BS69_(CC-MYND) in the cell, 25°C, 20 mM Tris-HCl, 100 mM NaCl, 1 mM TCEP, pH 7.5; one-site model with n fixed to 1. As to conditions: both partners purified.
Data set [5] deals with the molecule itself. The data set can be described thus: SEC-MALS; individual polypeptides, 5 mg/ml, Shodex KW403-4F column, 25°C, 20 mM Tris-HCl, 100 mM NaCl, 1 mM TCEP, pH 7.5.

B1: type 2 EBNA2 polypeptide T2 EBNA2_(348-412) (domain or fragment)
chain: SMPQLSPVVSLHQGQGPENSPTPGPSTAGPVCRVTPSATPDISPIHEPESSDSEEPPFLFPSDWY
notes: also called type 2 EBNA2_(348-412); source: E. coli Rosetta 2 (DE3) pLysS, purified (cobalt resin, 3C protease cleavage, Superdex 75); not shown: His6, N-terminal, cleaved
Take B1: in data set [1], the equilibrium dissociation constant (Kd) was 1.21 µM, the dH is -22.5 kcal/mol and the “stoichiometry N” value was 0.33.

B2: type 2 EBNA2 polypeptide T2 EBNA2_(348-422) (domain or fragment)
chain: SMPQLSPVVSLHQGQGPENSPTPGPSTAGPVCRVTPSATPDISPIHEPESSDSEEPPFLFPSDWYPPTLEPAELD
notes: EBNA2 of type 2 Epstein-Barr virus (AG876), amino acids 348-422 (motifs 1, 2 and 3), in pET47b+; also called T2 E2_(348-422); source: E. coli Rosetta 2 (DE3) pLysS, purified (HisPur cobalt resin, 3C protease cleavage, Superdex 75); not shown: His6, N-terminal, cleaved
B2: the affinity in data set [2], expressed as Kd, was 1.01 µM.

B3: type 2 EBNA2 polypeptide T2 EBNA2_(348-422) (domain or fragment)
chain: SMPQLSPVVSLHQGQGPENSPTPGPSTAGPVCRVTPSATPDISPIHEPESSDSEEPPFLFPSDWYPPTLEPAELD
notes: Monomer alone by SEC-MALS; also called T2 E2_(348-422); type 2 EBNA2_(348-422); source: E. coli Rosetta 2 (DE3) pLysS, purified (cobalt resin, 3C protease cleavage, Superdex 75); not shown: His6, N-terminal, cleaved
Consider B3, for which, in data set [3], the “dH of the second binding event” value is -1.59 kcal/mol. In data set [1], the dH was -53.2 kcal/mol and the “stoichiometry N” value was 0.15.

B4: EBNA2_(348-422) SD + m3 T1 (domain or fragment)
chain: SMPQLSPVVSLHQGQGPENSPTPGPSTAGPVCRVTPSATPDISPIHEPESSDSEEPPFLFPDDWYPPSIDPAELD
notes: EBNA2 of type 2 Epstein-Barr virus (AG876), residues 348-422, with S409D and motif 3 PTLEP replaced by PSIDP; also called T2 EBNA2_(348-422) SD + m3 T1; type 2 EBNA2 double mutant (S409D, PTLEP to PSIDP); source: E. coli Rosetta 2 (DE3) pLysS, purified (cobalt resin, 3C protease cleavage, Superdex 75); not shown: His6, N-terminal, cleaved
On to B4, for which the binding result in data set [3] is recorded as “binds”.

B5: T2 EBNA2_(348-422) motif 3 mt (PTLEP to ATAEA) (domain or fragment)
chain: SMPQLSPVVSLHQGQGPENSPTPGPSTAGPVCRVTPSATPDISPIHEPESSDSEEPPFLFPSDWYPATAEAAELD
notes: EBNA2 of type 2 Epstein-Barr virus (AG876), residues 348-422, with motif 3 mutated from PTLEP to ATAEA; also called T2 E2 m3 mt; source: E. coli Rosetta 2 (DE3) pLysS, purified (cobalt resin, 3C protease cleavage, Superdex 75); not shown: His6, N-terminal, cleaved
As for B5, in data set [1], the dH is -25.7 kcal/mol and the “stoichiometry N” value is 0.3.

B6: T2 EBNA2_(348-422) SD mutant (S409D) (domain or fragment)
chain: SMPQLSPVVSLHQGQGPENSPTPGPSTAGPVCRVTPSATPDISPIHEPESSDSEEPPFLFPDDWYPPTLEPAELD
notes: EBNA2 of type 2 Epstein-Barr virus (AG876), residues 348-422, serine to aspartate at position 409; text and methods say position 409; source: E. coli Rosetta 2 (DE3) pLysS, purified (cobalt resin, 3C protease cleavage, Superdex 75); not shown: His6, N-terminal, cleaved
In the case of B6, the “dH of the second binding event” value in data set [3] is -7.65 kcal/mol.

B7: T2 EBNA2_(348-422) m3 T1 (PTLEP to the type 1 sequence PSIDP) (domain or fragment)
chain: SMPQLSPVVSLHQGQGPENSPTPGPSTAGPVCRVTPSATPDISPIHEPESSDSEEPPFLFPSDWYPPSIDPAELD
notes: source: E. coli Rosetta 2 (DE3) pLysS, purified (HisPur cobalt resin, 3C protease cleavage, Superdex 75); not shown: His6, N-terminal, cleaved
With B7, in data set [2], the affinity, expressed as Kd, was 1.9 µM and the “stoichiometry N” value was found to be 0.25.

B8: T2 EBNA2_(348-422) motif 3 mt (PTLEP to ATAEA) (domain or fragment)
chain: SMPQLSPVVSLHQGQGPENSPTPGPSTAGPVCRVTPSATPDISPIHEPESSDSEEPPFLFPSDWYPATAEAAELD
notes: EBNA2 of type 2 Epstein-Barr virus (AG876), amino acids 348-422, motif 3 PTLEP_(414-418) mutated to ATAEA; also called T2 EBNA2348-422 m3 mt; source: E. coli Rosetta 2 (DE3) pLysS, purified (HisPur cobalt resin, 3C protease cleavage, Superdex 75); not shown: His6, N-terminal, cleaved
On to B8, for which, in data set [2], the affinity, expressed as Kd, was 0.59 µM and the “stoichiometry N” value was 0.31.

B9: EBNA2_(348-422) SD + m3 mt (domain or fragment)
chain: SMPQLSPVVSLHQGQGPENSPTPGPSTAGPVCRVTPSATPDISPIHEPESSDSEEPPFLFPDDWYPATAEAAELD
notes: EBNA2 of type 2 Epstein-Barr virus (AG876), residues 348-422, with S409D and motif 3 PTLEP mutated to ATAEA; also called type 2 EBNA2 double mutant (S409D, PTLEP to ATAEA); source: E. coli Rosetta 2 (DE3) pLysS, purified (cobalt resin, 3C protease cleavage, Superdex 75); not shown: His6, N-terminal, cleaved
Consider B9, for which the binding result in data set [3] was “binds”.

B10: type 2 EBNA2 motif 3 peptide (T2 EBNA2_(412-422)) (peptide)
peptide: YPPTLEPAELD
notes: EBNA2 of type 2 Epstein-Barr virus (AG876), residues 412-422, holding motif 3 (PTLEP 414-418); source: synthetic peptide (Peptide Synthetics)
As for B10, the Kd in data set [4] is 219 µM.

B11: type 1 EBNA2 motif 2 peptide (435-445) (peptide)
chain: EAPILFPDDWY
In turn, B11 registered a Kd in data set [4] of 47.7 µM.
Regarding B12, in data set [5], the “stoichiometry N” value came to 2.

B13: type 2 EBNA2 motif 2 peptide (402-412) (peptide)
peptide: EPPFLFPSDWY
notes: source: synthetic peptide (Peptide Synthetics)
B13 returned a Kd in data set [4] of 176 µM.
